Experimental data taken from PMC4081078.

Assays:
[1] = molecular target: T1, TRF2 (UniProt Q15554 1-542); experiment: EMSA
[2] = molecular target: T1, TRF2; experiment: EMSA; remark: listed apart in the source
[3] = molecular target: TRF1 (UniProt P54274 1-439); experiment: EMSA
[4] = molecular target: TRF2ΔB (UniProt Q15554 87-542); experiment: EMSA
[5] = molecular target: T1, TRF2; experiment: EMSA; remark: listed apart in the source
[6] = molecular target: T1, TRF2; experiment: pull-down, immunoblot

T1 sequence (Q15554 whole entry): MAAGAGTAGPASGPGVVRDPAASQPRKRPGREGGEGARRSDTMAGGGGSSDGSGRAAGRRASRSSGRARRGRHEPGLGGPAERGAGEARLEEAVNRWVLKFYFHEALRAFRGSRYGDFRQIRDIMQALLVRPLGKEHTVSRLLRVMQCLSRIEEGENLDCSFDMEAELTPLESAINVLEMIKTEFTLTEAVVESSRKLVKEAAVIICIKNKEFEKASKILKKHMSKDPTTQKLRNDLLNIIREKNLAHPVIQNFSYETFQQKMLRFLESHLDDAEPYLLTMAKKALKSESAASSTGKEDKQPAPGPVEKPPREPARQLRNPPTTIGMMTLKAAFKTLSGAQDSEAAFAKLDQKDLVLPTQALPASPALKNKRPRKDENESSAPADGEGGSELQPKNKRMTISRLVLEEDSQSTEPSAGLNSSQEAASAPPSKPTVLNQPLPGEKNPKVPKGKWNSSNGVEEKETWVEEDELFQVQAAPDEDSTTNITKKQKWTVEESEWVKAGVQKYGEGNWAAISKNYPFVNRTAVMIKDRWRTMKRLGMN
TRF2ΔB, sequence (Q15554 87-542, stated change not applied): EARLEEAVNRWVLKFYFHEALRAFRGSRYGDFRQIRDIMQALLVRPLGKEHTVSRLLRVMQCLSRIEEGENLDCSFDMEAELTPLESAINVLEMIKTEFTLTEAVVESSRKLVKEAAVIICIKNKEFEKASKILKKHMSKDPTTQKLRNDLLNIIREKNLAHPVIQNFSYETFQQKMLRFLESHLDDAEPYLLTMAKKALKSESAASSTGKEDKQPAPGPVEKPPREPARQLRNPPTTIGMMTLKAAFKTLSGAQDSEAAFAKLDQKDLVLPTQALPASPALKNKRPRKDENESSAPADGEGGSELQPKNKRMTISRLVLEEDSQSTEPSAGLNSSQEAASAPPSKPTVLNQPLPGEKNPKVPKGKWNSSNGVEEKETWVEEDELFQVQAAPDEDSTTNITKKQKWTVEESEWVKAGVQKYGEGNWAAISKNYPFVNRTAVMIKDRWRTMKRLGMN
TRF1, sequence (P54274 whole entry): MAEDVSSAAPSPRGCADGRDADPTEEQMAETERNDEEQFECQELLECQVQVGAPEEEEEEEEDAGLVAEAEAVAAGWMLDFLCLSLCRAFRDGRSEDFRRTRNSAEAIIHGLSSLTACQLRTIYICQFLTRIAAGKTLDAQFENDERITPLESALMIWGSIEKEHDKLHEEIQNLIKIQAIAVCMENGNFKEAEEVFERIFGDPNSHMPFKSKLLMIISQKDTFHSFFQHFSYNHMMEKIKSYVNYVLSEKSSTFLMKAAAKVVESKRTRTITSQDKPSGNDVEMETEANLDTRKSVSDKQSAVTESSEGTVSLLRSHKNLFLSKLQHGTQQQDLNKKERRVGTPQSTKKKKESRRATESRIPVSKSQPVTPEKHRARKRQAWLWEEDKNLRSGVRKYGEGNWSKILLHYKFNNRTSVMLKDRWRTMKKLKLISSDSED

B1: *G77telo/C38telo (dsDNA)
DNA 1: AGCTGAGCATGTCCAGACATGTCCTAGGGTTAGGGTTAGGGTTAGGGTTAGGGTTAGGGTTAGGGTTAGGGTTAGGG
DNA 2: TAACCCTAACCCTAGGACATGTCTGGACATGCTCAGCT
modifications: phosphorothioate after nt 1 of each strand
[1]
  binding result: binds

B2: *G77telo/C77telo (dsDNA)
DNA 1: B1 DNA 1
DNA 2: CCCTAACCCTAACCCTAACCCTAACCCTAACCCTAACCCTAACCCTAACCCTAGGACATGTCTGGACATGCTCAGCT
modifications: phosphorothioate after nt 1 of each strand
[2]
  binding result: binds
[3]
  binding result: binds
[4]
  binding result: binds

B3: *G77telo/C50telo (dsDNA)
DNA 1: B1 DNA 1
DNA 2: TAACCCTAACCCTAACCCTAACCCTAGGACATGTCTGGACATGCTCAGCT
modifications: phosphorothioate after nt 1 of each strand
[5]
  binding result: binds
[4]
  binding result: binds

B4: b-G68telo/C50telo (dsDNA)
DNA 1: AGCTGAGCATGTCCAGACATGTCCTAGGGTTAGGGTTAGGGTTAGGGTTAGGGTTAGGGTTAGGGTTA
DNA 2: B3 DNA 2
modifications: phosphorothioate after nt 1 of each strand
[6]
  binding result: binds
